The values below come from article PMC10981135.

Where a chain is given by its changes, count along the chain named. Where two headings read alike, the source gives them in different places.

Usually Kd stands for the concentration at which binding is half-saturated. Higher therefore signals lower affinity.

What all share (experiment): BLI
In general terms: BLI is a label-free optical method that tracks binding on a fibre tip over time.

Series [1] concerns the target T1, PfAlba6 Y28A (Plasmodium falciparum 3D7, UniProt Q8I617 1-96, Y28A).
T1 sequence: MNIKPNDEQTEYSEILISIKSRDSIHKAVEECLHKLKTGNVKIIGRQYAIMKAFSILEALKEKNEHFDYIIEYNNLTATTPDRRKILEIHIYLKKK

Another series concerns the target T2, PfAlba6 (Plasmodium falciparum 3D7, UniProt Q8I617).
T2 sequence: T1 sequence with A28Y

Series [2] has as its target T1, PfAlba6 Y28A. This is another data set of the same source.

B1: 28 bp dsDNA (C28) (dsDNA)
DNA 1: TGGCGAAAGGGGGTTGTGCTGCAAGGCG
DNA 2: CGCCTTGCAGCACAACCCCCTTTCGCCA
For B1, the Kd with PfAlba6 Y28A [1] is 10 ± 0.9 nM; with PfAlba6, 10 ± 0.37 nM; in the series with PfAlba6 Y28A [2], 12.1 ± 0.83 nM.
